Data as given in paper PMC5085863 (The Biochemical journal, 2016).
Where two headings read alike, the source gives them in different places.

What was measured:
Assay in all cases: FRET or BRET
FRET or BRET [1] = molecular target: the molecule itself
FRET or BRET [2] = molecular target: the molecule itself; remark: listed apart in the source
FRET or BRET [3] = molecular target: the molecule itself; remark: listed apart in the source
FRET or BRET [4] = molecular target: the molecule itself; remark: listed apart in the source
FRET or BRET [5] = molecular target: the molecule itself; remark: listed apart in the source
FRET or BRET [6] = molecular target: the molecule itself; remark: listed apart in the source
FRET or BRET [7] = molecular target: the molecule itself; remark: listed apart in the source

B1: opsin tagged with the fluorescent proteins mTurquoise or SYFP2 (opsin-mTurquoise and opsin-SYFP2, co-expressed) (receptor, UniProt P15409 1-348, looked up)
chain: MNGTEGPNFYVPFSNVTGVVRSPFEQPQYYLAEPWQFSMLAAYMFLLIVLGFPINFLTLYVTVQHKKLRTPLNYILLNLAVADLFMVFGGFTTTLYTSLHGYFVFGPTGCNLEGFFATLGGEIALWSLVVLAIERYVVVCKPMSNFRFGENHAIMGVVFTWIMALACAAPPLVGWSRYIPEGMQCSCGIDYYTLKPEVNNESFVIYMFVVHFTIPMIVIFFCYGQLVFTVKEAAAQQQESATTQKAEKEVTRMVIIMVIFFLICWLPYASVAFYIFTHQGSNFGPIFMTLPAFFAKSSSIYNPVIYIMLNKQFRNCMLTTLCCGKNPLGDDDASATASKTETSQVAPA
tetramer to dimer ratio (ρ) (FRET or BRET [1]): 1.08 | tetramer to dimer ratio (ρ) (FRET or BRET [2]): 1.79 | tetramer to dimer ratio (ρ) (FRET or BRET [3]): 0.401 | tetramer to dimer ratio (ρ) (FRET or BRET [4]): 484 | stoichiometry N (FRET or BRET [5]): 2 | KD tetramer to higher order oligomers (FRET or BRET [6]): > 1150 molecules/μm^2 | stoichiometry N (FRET or BRET [6]): ≥ 12 | stoichiometry N (FRET or BRET [7]): 4
